{"source": "paper PMC8113581", "about": "(Nature Communications, 2021)", "binders": {"B1": {"name": "P4A1 (antibody, V domains shown)", "VH": "EVQLVESGGGLIQPGGSLRLSCAASGFIVSSNYMSWVRQAPGKGLEWVSIIYSGGSTFYADSVKGRFTISRDNSKNTLYLQMNSLRVEDTAVYYCARDLQELGSLDYWGQGTLVTVSS", "VL": "DIQMTQSPSSVSASVGDRVTITCRASQGISSWLAWYQQKPGKAPKLLIYAASSLQSGVPSRFSGSGSGTDFTLTISSLQPEDFATYYCQEANSFPYTFGQGTKLEIK", "notes": "also called P4A1 (IgG1); IgG1 form P4A1"}}, "target": "T1, SARS-CoV-2 spike S1 domain (D614G) (SARS-CoV-2, Wuhan-Hu-1 background with …, UniProt A0A6H1PJZ3, strain)", "T1 construct": "also called D614G S1 variant; source: bought: Sino Biological", "assay": "SPR", "details": "both partners purified", "data": [{"binder": "B1", "values": [{"measurement": "binding result", "value": "binds"}]}]}
